In US20170152307A1:

Experiments:
[1] = target: tau 48-71 (human); test: peptide ELISA, biotinylated peptide on streptavidin plate, IgG titrated (Example 14); details: remark: other sources report otherwise
[2] = target: recombinant tau (human), P10636; test: ELISA, recombinant tau coated on the plate, IgG titrated (Example 7); details: remark: other sources report otherwise
recombinant tau (human), P10636, sequence (P10636 other isoform, or with tags, fused parts or gaps limits assumed): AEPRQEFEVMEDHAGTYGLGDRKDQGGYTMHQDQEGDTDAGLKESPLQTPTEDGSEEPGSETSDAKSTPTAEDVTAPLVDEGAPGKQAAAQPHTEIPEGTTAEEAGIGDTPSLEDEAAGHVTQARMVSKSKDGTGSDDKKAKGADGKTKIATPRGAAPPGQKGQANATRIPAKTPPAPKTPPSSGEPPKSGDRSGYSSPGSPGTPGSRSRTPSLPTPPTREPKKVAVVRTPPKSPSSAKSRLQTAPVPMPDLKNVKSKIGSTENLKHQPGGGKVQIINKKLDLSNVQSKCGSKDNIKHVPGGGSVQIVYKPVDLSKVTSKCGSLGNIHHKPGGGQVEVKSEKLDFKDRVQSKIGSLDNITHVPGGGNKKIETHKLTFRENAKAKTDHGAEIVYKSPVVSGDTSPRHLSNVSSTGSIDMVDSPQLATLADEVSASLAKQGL

tau 48-71 (human), sequence (peptide, as listed by the source limits assumed, form in doubt): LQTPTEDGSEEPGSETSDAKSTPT

B1: CBTAU-28.1 (antibody, human IgG1, V domains shown)
VH: QVQLQQSGAEVKKPGESLKISCEASGYSFTNYWIGWVRQMPGKGLEWMGIIYPGDSDTRYSPPFQGQVTITADRSITTAYLEWSSLKASDTAMYYCARVGRPSKGGWFDPWGQGTLVTVSS
VL: DIQMTQSPDSLAVSLGERATINCESSQTLLYSSNEKNYLAWYQQKPGQPPKLLISWASTPESGVPDRFSGSGSGTSFTLTISSLQAEDVAVYYCQQYYNSPYTFGQGTRLEIK
modifications: here or on the partner: N-terminal biotin not carried in the letters; no phosphorylation
[1]
  EC50 (read off the curve): 0.06 µg/mL
[2]
  EC50 (read off the curve): 0.008 µg/mL
